Data: paper PMC7948466

Key:
DNMT3A full length;p53 = DNMT3A full length;p53 (Homo sapiens;Homo sapiens, UniProt Q9Y6K1;P04637 1-912;1-393, |); assay: fluorescence anisotropy; unlabeled H3K4me0 peptide titrated; 50 nM DNA, 1 uM 1:1 complex; FA increases; Fluorescence anisotropy (ex 485 nm, em 520 nm), 5 min incubation at room temperature; binding buffer, salt and pH not given in the material
DNMT3A full length;TDG = DNMT3A full length;TDG (Homo sapiens;Homo sapiens, UniProt Q9Y6K1;Q13569 1-912;1-410, |); assay: as above
DNMT3A full length = DNMT3A full length (Homo sapiens, UniProt Q9Y6K1 1-912); assay: fluorescence anisotropy; unlabeled H3K4me0 peptide (1-21) titrated; 50 nM DNA, 1 uM DNMT3A; FA increases; Fluorescence anisotropy (ex 485 nm, em 520 nm), 5 min incubation at room temperature; binding buffer, salt and pH not given in the material

Measured: binding result

Chain of DNMT3A full length;TDG (Q9Y6K1 whole entry, chain 1 of 2): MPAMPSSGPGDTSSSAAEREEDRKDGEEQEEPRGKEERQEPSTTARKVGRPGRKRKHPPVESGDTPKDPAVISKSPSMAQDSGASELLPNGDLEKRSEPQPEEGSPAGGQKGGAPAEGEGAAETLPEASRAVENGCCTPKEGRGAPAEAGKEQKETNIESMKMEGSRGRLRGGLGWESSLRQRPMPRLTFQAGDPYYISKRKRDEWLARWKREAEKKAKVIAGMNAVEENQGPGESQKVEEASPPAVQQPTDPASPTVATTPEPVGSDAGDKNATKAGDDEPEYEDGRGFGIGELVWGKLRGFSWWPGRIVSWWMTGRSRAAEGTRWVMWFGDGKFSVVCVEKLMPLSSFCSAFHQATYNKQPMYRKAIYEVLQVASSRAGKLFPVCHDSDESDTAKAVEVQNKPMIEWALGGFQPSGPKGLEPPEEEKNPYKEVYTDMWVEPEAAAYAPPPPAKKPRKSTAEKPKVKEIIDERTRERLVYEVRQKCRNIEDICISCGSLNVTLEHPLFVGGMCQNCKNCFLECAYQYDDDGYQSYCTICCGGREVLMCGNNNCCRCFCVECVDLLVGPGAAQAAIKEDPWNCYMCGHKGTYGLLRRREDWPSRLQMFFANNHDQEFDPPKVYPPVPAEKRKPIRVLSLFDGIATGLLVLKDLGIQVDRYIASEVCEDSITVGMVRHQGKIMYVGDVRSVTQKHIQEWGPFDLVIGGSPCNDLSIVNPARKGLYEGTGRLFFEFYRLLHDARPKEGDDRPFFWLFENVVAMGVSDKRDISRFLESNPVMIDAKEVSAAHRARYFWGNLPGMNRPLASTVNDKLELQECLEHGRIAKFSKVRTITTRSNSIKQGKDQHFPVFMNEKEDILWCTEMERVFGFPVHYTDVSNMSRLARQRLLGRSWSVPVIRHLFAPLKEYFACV
Chain of DNMT3A full length;TDG (Q13569 whole entry, chain 2 of 2): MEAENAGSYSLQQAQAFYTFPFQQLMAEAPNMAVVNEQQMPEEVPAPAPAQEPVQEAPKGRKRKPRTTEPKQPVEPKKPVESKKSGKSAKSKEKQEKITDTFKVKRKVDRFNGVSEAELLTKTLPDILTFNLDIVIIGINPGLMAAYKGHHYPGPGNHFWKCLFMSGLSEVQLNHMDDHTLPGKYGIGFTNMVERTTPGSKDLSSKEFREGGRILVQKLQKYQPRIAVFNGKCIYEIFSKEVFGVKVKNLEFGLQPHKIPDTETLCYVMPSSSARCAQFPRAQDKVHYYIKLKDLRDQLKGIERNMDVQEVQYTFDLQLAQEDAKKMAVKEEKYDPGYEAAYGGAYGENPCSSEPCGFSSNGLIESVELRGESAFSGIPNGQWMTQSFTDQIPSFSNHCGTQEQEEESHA
Chain of DNMT3A full length (Q9Y6K1 whole entry): as the sequence (Q9Y6K1 whole entry, chain 1 of 2) above

B1: GCbox30 (dsDNA)
DNA 1: TGGATATCTAGGGGCGCTATGATATCT
DNA 2: AGATATCATAGCGCCCCTAGATATCCA
binds: all assays above
